From the supplement of paper PMC10567573
± gives the standard deviation.

Experiment: protein stability index of a GFP-peptide fusion (GPS, HEK-293T) (PSI 1-6); higher = more stable
Conditions: c terminus: a fixed tail appended
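Note: 24-mer peptide tiles fused after GFP, lentivirally expressed, FACS-sorted into six equal bins by GFP/DsRed ratio, decoded by Illumina sequencing, PSI is the read-weighted mean bin number.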

Sequence	protein stability index (treatment: DMSO)	protein stability index (treatment: MLN4924 1 uM, 8 h)
SQIQGHKEMSKVWNDLRPKLSCLF [SNX8]	2.2 ± 0.35	2.22 ± 0.22
FKKQIWLLFEYPESSSPARGIAIV [KCNA4]	2.74 ± 0.17	2.42 ± 0.3
AFEESKIDEHHFVAVALRKPDGSR [AASDHPPT]	4.01 ± 0.52	4.2 ± 0.53
LEEKCQQPASELLQDVRVNQSRCE [TRIM15]	5.58 ± 0.22	5.53 ± 0.5
WFIHLVFVVLAFLTGVLCSYPNPN [TMEM192]	3.346 ± 0.002	2.89 ± 0.56
RLHNLYSTPRCAQQAALPRLSRRM [CBY2]	2.28 ± 0.31	2.55 ± 0.4
FELDLGKKVLNLLKGAFPARLKKV [PTPN9]	2.84 ± 1.1	2.34 ± 0.59
LTEASAHSHPPEIKDQGGAGEGLV [MAP2]	5.57 ± 0.15	5.56 ± 0.2
TSQKVARKFWWKNVKMIVLICVIV [VAMP8]	2.42 ± 0.31	2.15 ± 0.29
GGTGSGDGNKIFLCHCGKAFSHKS [ZBTB22]	2.27 ± 0.38	2.58 ± 0.41
SWLEENVHEVLQAVDAGDPAVEAC [TCF25]	4.86 ± 0.14	4.84 ± 0.32
AFNFLLVWYYCTLTIRESILINNG [TMEM120A]	2.87 ± 0.055	3.15 ± 0.51
